Read-outs that look alike come from different tables or passages of the source.
B1: 6-G23-F (antibody, V domains shown)
VH: QVQLVQSGAEVKKPGASVKVSCKASGYTFTSYYIHWVRQAPGQGLEWMGIIDPSDGSTNYAQKFQGRVTMTRDTSTSTVYMELSSLRSEDTAVYYCARDREYNYYGLDVWGQGTTVTVSS
VL: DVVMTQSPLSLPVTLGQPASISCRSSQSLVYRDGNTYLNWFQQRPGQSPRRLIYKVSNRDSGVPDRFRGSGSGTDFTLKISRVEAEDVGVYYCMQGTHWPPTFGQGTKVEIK
B2: 7-I1-B (antibody, V domains shown)
VH: EVQLVESGGGLVKPGGSLRLSCAASGFTFSNTWMSWVRQAPGKGLEWVGRIKSKSDGGTTDYAAPVKGRFTISRDDSKNTLYLQMNSLKTEDTAVYYCTQYYWNSFDYWGQGTLVTVSS
VL: not shown
B3: 2-C8-A (antibody, V domains shown)
VH: EVQLVESGGGLVQPGGSQRLSCAASGFTFSSYWMNWVRQAPGKGLEWVANIKEDGSEKYYVDSVKGRFTISRDNAKNSLYLQMNSLRAEDTAVYYCARDPGWAPFDYWGQGTLVTVSS
VL: DIQMSQSPSSLSASVGDRVTITCRASQGISNYLAWFQQKPGKAPKSLIYAASSLQSGVPSKFSGSGSGTDFTLAISSLQPEDFATYYCQQYNSFPYTFGQGTTLEIK
B4: 10-O18-A (antibody, V domains shown)
VH: QVQLQESGPGLVKPSETLSLTCTVSGGSINSYYWSWIRQPPGKGLEWIGYIFYSGITNYNPSLKSRVTISLDTSKNQFSLKLSSVTAADTAVYYCARIGVAGFYFDYWGQGTLVTVSS
VL: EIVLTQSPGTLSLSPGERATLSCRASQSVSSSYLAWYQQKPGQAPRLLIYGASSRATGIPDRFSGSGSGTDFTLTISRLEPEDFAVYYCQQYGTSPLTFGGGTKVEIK

Tests used:
Assay in all cases: BLI (Octet HTX)
[1] = target: T1, Recombinant Human DLL3 Protein (amino acids Ala27-Ala479, cat #9749-DL, R&D Systems) (UniProt Q9NYJ7 27-479)
T1 chain: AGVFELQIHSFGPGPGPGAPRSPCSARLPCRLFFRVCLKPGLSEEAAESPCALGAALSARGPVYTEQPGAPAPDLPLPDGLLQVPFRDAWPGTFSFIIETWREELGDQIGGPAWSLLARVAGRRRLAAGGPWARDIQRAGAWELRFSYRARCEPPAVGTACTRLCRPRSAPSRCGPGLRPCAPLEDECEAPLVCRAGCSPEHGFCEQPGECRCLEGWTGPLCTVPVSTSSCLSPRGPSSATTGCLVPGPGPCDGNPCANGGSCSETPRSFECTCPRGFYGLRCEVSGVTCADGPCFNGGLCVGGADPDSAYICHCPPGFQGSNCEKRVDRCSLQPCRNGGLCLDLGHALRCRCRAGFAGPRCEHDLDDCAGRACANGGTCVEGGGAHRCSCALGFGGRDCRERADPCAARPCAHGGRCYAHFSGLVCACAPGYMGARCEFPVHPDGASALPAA

[2] = target: T1, Recombinant Human DLL3 Protein (amino …)
[3] = target: T1, Recombinant Human DLL3 Protein (amino …)

Row | Binder | Kd [1] | Kd [2] | Kd [3]
1 | B1 | 0.16 nM | 0.16 nM | –
2 | B2 | 0.68 nM | 0.686 nM | –
3 | B3 | 0.668 nM | – | 0.668 nM
4 | B4 | 0.62 nM | – | 0.602 nM

— patent publication US20240115721A1 (published 2024)
